Data published in the RNAGym collection of RNA variant scans (doi:10.1021/acssynbio.7b00057).

B1: Pistol ribozyme (parent)
chain: GGGUCGUUGUUCCAUAAUCGCGUGGAUAUGGCACGCAAGUUUCUACCGGGCACCGUAAAUGUCCGACUGGAGCCGUUCGGGCGGCUAUAAACAGACCUCAGGCCCGAAGCGUGGCGGCACCUGCCGCCGGUGGUAAAAAAGAUCGGAAGAGCACACGUCU

Variants of: B1
Assay: aptazyme ON/OFF ratio, guanine; higher = stronger switching; co-transcriptional cleavage with and without guanine

In order of rising “aptazyme ON/OFF ratio” value:
1. U7G G9A U10C U11C C13U  1.02
2. U7G G9A U10C U11C C13G  1.03
3. U7G G9A U10C U11C C13A  1.04
4. U7G G9A U10C U11C  1.04
5. U7C U11A C13G  1.04
6. U7G G9A U10C U11C C12U C13G  1.04
7. U7G G9A U10G U11C  1.04
8. U7G C13G  1.05
9. U7G G9A U10A U11C C12U  1.05
10. U7G G9A U10C U11C C12U C13A  1.05
11. U7C U11C C13G  1.05
12. U7G G9A U10G U11A C12U C13G  1.05
13. U7G G9A U10G U11A  1.05
14. U7G G9A U10G U11A C12A C13G  1.05
15. U7G G9A U10G U11C C12A C13G  1.06
16. U7G G9A U10C U11G C12G C13G  1.06
17. U7G G9A U10C U11G C12G C13U  1.06
18. U7G G9A U10A U11C C13U  1.06
19. U7G G9A U10G U11A C12A C13A  1.06
20. U7G G9A U11C C12G C13G  1.07
21. U7G G9A U10A U11A C12A C13A  1.07
22. U7G G9A U11G C12G C13G  1.07
23. U7G G9A U11G C12G C13A  1.07
24. U7G G9A U10C U11C C12U C13U  1.07
25. U7G G9A U10C U11A C12G C13G  1.07
26. U7G G9A U10C U11G C12A C13A  1.07
27. U7G G9A U10G U11A C12U C13U  1.07
28. U7G C13A  1.08
29. U7G G9A U10A U11C C13G  1.08
30. U7G G9A U11C C13G  1.09
31. U7G G9A C12A C13A  1.09
32. U7G G9A U10G U11G C12G  1.09
33. U7G G9A U11G C12U C13A  1.09
34. U7G C13U  1.09
35. U7G G9A U10A U11C  1.09
36. U7G G9A U10A U11G C12G C13A  1.09
37. U7G G9A U10G U11C C12A C13A  1.09
38. U7G G9A U10C U11A C13G  1.09
39. U7G G9A U10A U11A C13G  1.09
40. U7G G9A U11A C12A C13G  1.09
41. U7G G9A U10C U11G C12A  1.09
42. U7G G9A U10C U11G C12G C13A  1.09
43. U7G G9A U10G U11G C12U C13A  1.09
44. U7G G9A U10C U11A C12A C13U  1.09
45. U7G G9A U10C U11A C12A C13G  1.09
46. U7G G9A U10G U11G  1.09
47. U7G G9A U10A U11C C13A  1.09
48. U7G G9A U10G U11A C12A C13U  1.09
49. U7G G9A U10G U11G C12A  1.1
50. U7G G9A U10G U11C C12A C13U  1.1
51. U7G G9A U10G C12U C13U  1.1
52. U7G G9A U10G U11G C12U C13U  1.1
53. U7G G9A U10C U11G C12A C13G  1.1
54. U7G G9A U10A U11A C12G C13A  1.1
55. U7G G9A U11C C12A C13A  1.1
56. U7G G9A U10G U11A C12U C13A  1.1
57. U7C U11C C12A  1.1
58. U7G G9A U10A U11A C12A  1.1
59. U7G G9A C12G C13G  1.1
60. U7G G9A U10G U11G C12G C13A  1.11
61. U7G G9A U11C C13A  1.11
62. U7G G9A U11C C12G C13A  1.11
63. U7G G9A U10A U11A C12A C13U  1.11
64. U7G G9A U11G C12U C13G  1.11
65. U7G G9A U10G C12U C13G  1.11
66. U7G G9A U10G C12U C13A  1.11
67. U7G G9A U10C U11A C12G C13A  1.11
68. U7G G9A U10C U11G C12A C13U  1.11
69. U7G G9A U10C U11A C12A C13A  1.11
70. U7G G9A U10G C13A  1.11
71. U7G G9A U10C U11A C12G C13U  1.12
72. U7G G9A U10G U11G C12U C13G  1.12
73. U7G G9A U10A U11A C12G C13U  1.12
74. U7G G9A U10G C13U  1.12
75. U7G G9A C12A C13U  1.13
76. U7G G9A U11C C12G C13U  1.13
77. U7G G9A U10A U11A C12A C13G  1.13
78. U7C U11C C13U  1.13
79. U7G G9A U10G C13G  1.13
80. U7G G9A C12G C13A  1.13
81. U7G G9A U11C C13U  1.14
82. U7G G9A U10A U11G C12G C13G  1.14
83. U7G G9A U10A U11A C13A  1.14
84. U7G G9A U11C C12A C13G  1.14
85. U7G C12A  1.14
86. U7G G9A C12A C13G  1.15
87. U7G G9A U11A C12A C13U  1.15
88. U7G G9A U10C U11G C12G  1.15
89. U7G G9A U11C C12U C13A  1.15
90. U7C U11C C13A  1.15
91. U7G G9A U10A U11C C12U C13G  1.15
92. U7G G9A U10A U11C C12U C13A  1.15
93. U7G G9A U10G U11G C12G C13G  1.16
94. U7G G9A U10G U11G C12G C13U  1.16
95. U7C U11C  1.16
96. U7G G9A U10G U11G C12U  1.16
97. U7G G9A U11G C12G C13U  1.16
98. U7C U11G C12A C13A  1.16
99. U7C U11A C12U C13U  1.16
100. U7G G9A U11G C12A  1.17
101. U7G G9A U11G C12G  1.17
102. U7G G9A U10C U11A C13A  1.17
103. U7C U11G C12A C13U  1.17
104. U7C U11G C12A C13G  1.17
105. U7C U11A C12U C13G  1.17
106. U7G G9A U11C  1.17
107. U7G G9A U11A C12A C13A  1.18
108. U7C U11A C12U C13A  1.18
109. U7C U11A C12U  1.18
110. U7G G9A C12G C13U  1.18
111. U7G G9A U10C U11A C13U  1.19
112. U7G G9A U10C U11G C12U  1.19
113. U7G G9A U10A U11A C12G C13G  1.19
114. U7G G9A U11C C12U C13G  1.19
115. U7C U11G  1.2
116. U7G G9A U11G C12U C13U  1.2
117. U7G G9A U10A U11A C13U  1.2
118. U7G G9A C12G  1.2
119. U7G G9A U10A U11C C12U C13U  1.2
120. U7G G9A U10A U11A C12G  1.2
121. U7G G9A U10A U11A C12U  1.2
122. U7C U11A C13A  1.21
123. U7C U11C C12G C13A  1.21
124. U7G C12U C13G  1.21
125. U7G C12U C13A  1.21
126. U7C U11A C12G  1.21
127. U7G G9A U10A U11G C12G C13U  1.22
128. U7G G9A U10A U11C C12G  1.22
129. U7C U11C C12G C13U  1.22
130. U7C U11A C13U  1.23
131. U7G G9A U10A U11C C12A  1.24
132. U7C U11C C12A C13U  1.25
133. U7G G9A C12A  1.25
134. U7G C12G  1.25
135. U7G G9A U11C C12A C13U  1.26
136. U7G G9C C12G C13G  1.26
137. U7C U11C C12A C13A  1.27
138. U7G G9A U11C C12G  1.27
139. U7C U11C C12A C13G  1.28
140. U7G G9A U10C C12A  1.28
141. U7C U11A C12A C13U  1.28
142. U7C U11C C12G C13G  1.29
143. U7C U11C C12U C13U  1.29
144. U7G G9A U11G C12U  1.3
145. U7G G9A U11C C12U C13U  1.3
146. U7G G9C C12G C13A  1.3
147. U7G G9A U11C C12A  1.34
148. U7C U11C C12G  1.35
149. U7G C12U C13U  1.36
150. U7G G9A U10C C12G  1.38
151. U7G G9A U11C C12U  1.39
152. U7G C12U  1.39
153. U7G G9A C12U  1.41
154. U7G G9C C12G C13U  1.43
155. U7G G9C U10A C12A  1.43
156. U7C U11C C12U  1.5
157. U7G G9A U10C C12U  1.59
158. U7G G9A U11G  1.64
159. U7G G9A U10C U11G  1.68
160. U7G  1.89
161. U7G G9A U10A U11G  2.05
162. U7G G9A U10C U11A  2.37
163. U7G G9A U10A U11A  2.42
164. U7G G9A U11A  2.46
165. U7G G9C  2.85
166. U7G G9C U10A  3.1
167. U7G G9A  4.35
